Source: PMC10611751, “Dynamic interactions between E-cadherin and Ankyrin-G mediate epithelial cell polarity maintenance” (Nature Communications, 2023)
Several values for one entry are separate records, joined by “and”; a condition that tells them apart may be missing. Identical values can stand only once.

T1: full-length β-catenin 1-781 (mouse, UniProt Q02248 1-781)
T1 construct: also called β-catenin FL; source: E. coli BL21 (DE3), purified (Ni-NTA, SEC)
T1 sequence (looked up): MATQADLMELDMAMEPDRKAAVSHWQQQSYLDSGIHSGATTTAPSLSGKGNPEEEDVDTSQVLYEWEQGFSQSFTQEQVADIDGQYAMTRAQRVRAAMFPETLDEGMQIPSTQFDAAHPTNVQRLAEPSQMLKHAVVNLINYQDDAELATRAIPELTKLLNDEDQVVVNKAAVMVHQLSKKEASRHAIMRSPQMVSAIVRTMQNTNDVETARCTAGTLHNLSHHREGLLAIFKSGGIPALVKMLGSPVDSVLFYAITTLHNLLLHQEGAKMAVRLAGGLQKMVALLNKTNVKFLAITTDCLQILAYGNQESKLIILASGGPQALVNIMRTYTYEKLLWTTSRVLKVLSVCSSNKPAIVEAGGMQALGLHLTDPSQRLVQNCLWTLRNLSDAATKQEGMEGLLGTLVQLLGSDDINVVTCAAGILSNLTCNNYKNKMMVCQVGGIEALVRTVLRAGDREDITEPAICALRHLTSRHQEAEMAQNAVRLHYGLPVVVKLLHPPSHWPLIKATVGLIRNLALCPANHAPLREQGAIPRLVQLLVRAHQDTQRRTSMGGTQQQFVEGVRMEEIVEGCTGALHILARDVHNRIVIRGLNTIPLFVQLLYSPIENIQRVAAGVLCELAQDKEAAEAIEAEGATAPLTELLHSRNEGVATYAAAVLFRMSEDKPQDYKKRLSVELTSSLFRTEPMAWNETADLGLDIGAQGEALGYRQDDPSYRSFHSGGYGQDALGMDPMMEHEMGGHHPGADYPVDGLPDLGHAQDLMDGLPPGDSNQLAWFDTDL

B1: E-cadherin C-terminal domain (residues 734-884) (domain or fragment)
chain: not shown
notes: The ITC methods name 'Trx-E-cadherin'; 15N-labelled for the HSQC titration; also called E-cadherin CTD; CTD; source: E. coli BL21 (DE3), purified (Ni-NTA, SEC); not shown: Trx, N-terminal, kept; His6, N-terminal, kept
B2: Ankyrin-G 24 ANK repeats (residues 38-855) (domain or fragment, UniProt O70511 38-855, looked up)
chain: KSDANASYLRAARAGHLEKALDYIKNGVDVNICNQNGLNALHLASKEGHVEVVSELLQREANVDAATKKGNTALHIASLAGQAEVVKVLVTNGANVNAQSQNGFTPLYMAAQENHLEVVRFLLDNGASQSLATEDGFTPLAVALQQGHDQVVSLLLENDTKGKVRLPALHIAARKDDTKAAALLLQNDTNADIESKMVVNRATESGFTPLHIAAHYGNINVATLLLNRAAAVDFTARNDITPLHVASKRGNANMVKLLLDRGAKIDAKTRDGLTPLHCGARSGHEQVVEMLLDRAAPILSKTKNGLSPLHMATQGDHLNCVQLLLQHNVPVDDVTNDYLTALHVAAHCGHYKVAKVLLDKKANPNAKALNGFTPLHIACKKNRIRVMELLLKHGASIQAVTESGLTPIHVAAFMGHVNIVSQLMHHGASPNTTNVRGETALHMAARSGQAEVVRYLVQDGAQVEAKAKDDQTPLHISARLGKADIVQQLLQQGASPNAATTSGYTPLHLSAREGHEDVAAFLLDHGASLSITTKKGFTPLHVAAKYGKLEVASLLLQKSASPDAAGKSGLTPLHVAAHYDNQKVALLLLDQGASPHAAAKNGYTPLHIAAKKNQMDIATSLLEYGADANAVTRQGIASVHLAAQEGHVDMVSLLLSRNANVNLSNKSGLTPLHLAAQEDRVNVAEVLVNQGAHVDAQTKMGYTPLHVGCHYGNIKIVNFLLQHSAKVNAKTKNGYTPLHQAAQQGHTHIINVLLQNNASPNELTVNGNTALAIARRLGYISVVDTLKVVTEEIMTTTTITEKHKMNVPETMNEVLDMS
notes: Ankyrin-G, 24 ANK repeats, residues 38-855; The ITC methods name 'Trx-AnkG R1-24'; also called AnkG R1-24; AnkG ANK repeats; source: E. coli BL21 (DE3), purified (Ni-NTA, SEC); not shown: Trx, N-terminal, kept; His6, N-terminal, kept

Assays:
Conditions in all cases: both partners purified
[1] = target: B2; assay: ITC; E-cadherin proteins in the syringe (e.g. 200 μM Trx-E-cadherin) titrated into AnkG in the cell (e.g. 20 μM Trx-AnkG R1-24); 25 °C; 50 mM Tris, 100 mM NaCl, 1 mM EDTA, 1 mM DTT, pH 7.8; one-site binding model
[2] = target: T1, full-length β-catenin 1-781; assay: SEC-MALS; analytical gel filtration with static light scattering; AnkG R1-24, E-cadherin CTD and β-catenin 1-781 mixed at 1:1:1, 2:1:1, 3:1:1 and 4:1:1 molar ratios; also E-cadherin CTD with β-catenin 1-781 alone
[3] = target: T2, E-cadherin CTD–β-catenin complex (mouse, UniProt P09803 734-884; Q02248 1-781); assay: as above
T2 construct: Formed beforehand for the ITC titration to AnkG R1-24; in the light scattering experiment the three proteins were mixed together; source: E. coli BL21 (DE3), purified (Ni-NTA, SEC)

[4] = target: B1; assay: SEC-MALS; FPLC coupled with static light scattering; 70 μM E-cadherin with 70, 140, 210 or 280 μM AnkG (molar ratios 1:1 to 1:4); Superdex 200 increase; 50 mM Tris, 100 mM NaCl, 1 mM EDTA, 1 mM DTT, pH 7.8
[5] = target: B2; assay: as above

T2 sequence (P09803 734-884, one chain of several): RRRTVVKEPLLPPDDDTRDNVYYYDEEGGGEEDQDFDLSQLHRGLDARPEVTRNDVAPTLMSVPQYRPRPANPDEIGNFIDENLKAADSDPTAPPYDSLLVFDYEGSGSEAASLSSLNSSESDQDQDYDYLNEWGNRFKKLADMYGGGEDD

Row | Kd [1] [nM] | Binder | also measured
1 | ~1300 | B1 | stoichiometry N [1]: ~0.22; binding result [2]: binds
2 | ~900 | YYYDEEGGGEEDQDFD (domain or fragment, mouse, UniProt P09803 755-770, looked up, E-cadherin, mouse, residues 755-770; also called E-cadherin site-1; source: E. coli BL21 (DE3), purified (Ni-NTA, SEC); not shown: Trx, N-terminal, kept; His6, N-terminal, kept) [E-cadherin residues 755-770 (site-1)] | 
3 | ~1900 | PYDSLLVFDYEGSGS (domain or fragment, mouse, UniProt P09803 828-842, looked up, For the methyl-TROSY NMR fused to the N-terminus of AnkG R8-24; also called E-cadherin site-2; source: E. coli BL21 (DE3), purified (Ni-NTA, SEC); not shown: Trx, N-terminal, kept; His6, N-terminal, kept) [E-cadherin residues 828-842 (site-2)] | 
4 | ~1800 | ESDQDQDYDYLNEWGN (domain or fragment, mouse, UniProt P09803 854-869, looked up, E-cadherin, mouse, residues 854-869; also called E-cadherin site-3; source: E. coli BL21 (DE3), purified (Ni-NTA, SEC); not shown: Trx, N-terminal, kept; His6, N-terminal, kept) [E-cadherin residues 854-869 (site-3)] | 
5 |  | B2 | stoichiometry N [3]: 1 to 2 AnkG R1-24 per E-cadherin CTD and β-catenin; stoichiometry N [4]: 1 AnkG R1-24 per E-cadherin CTD and 2 AnkG R1-24 per E-cadherin CTD
6 | ~1900 | E-cadherin 828-884 (including both site-2 and site-3) (domain or fragment, source: E. coli BL21 (DE3), purified (Ni-NTA, SEC); not shown: Trx, N-terminal, kept; His6, N-terminal, kept) not shown | stoichiometry N [5]: 1
